B1: E. coli aspartate transcarbamoylase (ATCase) catalytic chain (enzyme, E. coli (endogenous in BL21(DE3)), UniProt P0A786 1-311, looked up)
chain: MANPLYQKHIISINDLSRDDLNLVLATAAKLKANPQPELLKHKVIASCFFEASTRTRLSFETSMHRLGASVVGFSDSANTSLGKKGETLADTISVISTYVDAIVMRHPQEGAARLATEFSGNVPVLNAGDGSNQHPTQTLLDLFTIQETQGRLDNLHVAMVGDLKYGRTVHSLTQALAKFDGNRFYFIAPDALAMPQYILDMLDEKGIAWSLHSSIEEVMAEVDILYMTRVQKERLDPSEYANVKAQFVLRASDLHNAKANMKVLHPLPRVDEIATDVDKTPHAWYFQQAGNGIFARQALLALVLNRDLVL
notes: Aspartate transcarbamoylase catalytic chain, E. coli, wild type, native form lacking the His tag; Crystallised as part of the native holoenzyme; also called catalytic subunit; source: endogenous, extracted from E. coli BL21(DE3), purified as native holoenzyme (Ni-NTA, HiLoad Superdex 200)
B2: E. coli aspartate transcarbamoylase (ATCase) regulatory chain (natural protein, E. coli (endogenous in BL21(DE3)), UniProt P0A7F3 1-153, looked up)
chain: MTHDNKLQVEAIKRGTVIDHIPAQIGFKLLSLFKLTETDQRITIGLNLPSGEMGRKDLIKIENTFLSEDQVDQLALYAPQATVNRIDNYEVVGKSRPSLPERIDNVLVCPNSNCISHAEPVSSSFAVRKRANDIALKCKYCEKEFSHNVVLAN
notes: Aspartate transcarbamoylase regulatory chain, E. coli, wild type, native; also called regulatory subunit; source: endogenous, extracted from E. coli BL21(DE3), purified as native holoenzyme (Ni-NTA, HiLoad Superdex 200)

Biological target: the molecule itself
Assay: crystal structure; native wild-type apo holoenzyme extracted from E. coli BL21(DE3); hanging drop, 0.1 M MES pH 6.0, 10% glycerol, 10% PEG 8000; space group R32, one catalytic and one regulatory chain in the asymmetric unit; 2.06 Å

Protein | binding result
B1 | binds
B2 | binds
